US20230416365A1 (Hoffmann-La Roche, published 2023)

T1: human CD19 on Nalm6 B cells (human, UniProt P15391 20-556)
T1 sequence: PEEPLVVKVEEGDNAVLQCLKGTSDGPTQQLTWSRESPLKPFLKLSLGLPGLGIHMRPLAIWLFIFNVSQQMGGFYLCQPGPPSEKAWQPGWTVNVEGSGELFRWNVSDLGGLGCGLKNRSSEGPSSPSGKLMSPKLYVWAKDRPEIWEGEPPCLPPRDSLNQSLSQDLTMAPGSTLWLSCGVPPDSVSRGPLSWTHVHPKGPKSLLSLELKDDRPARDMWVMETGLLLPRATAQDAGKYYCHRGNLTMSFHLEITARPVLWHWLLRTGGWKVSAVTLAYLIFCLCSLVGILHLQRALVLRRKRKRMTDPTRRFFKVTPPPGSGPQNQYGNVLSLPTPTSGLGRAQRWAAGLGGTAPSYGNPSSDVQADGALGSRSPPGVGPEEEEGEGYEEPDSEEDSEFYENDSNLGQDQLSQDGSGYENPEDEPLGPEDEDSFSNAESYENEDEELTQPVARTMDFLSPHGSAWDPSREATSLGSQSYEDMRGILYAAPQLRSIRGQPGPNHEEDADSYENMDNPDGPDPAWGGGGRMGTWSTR


What was measured:
[1] = target: human FAP on 3T3-huFAP cells (clone 19) (human, UniProt Q12884 1-760); assay: flow cytometry on 3T3-huFAP cells, median fluorescence intensity (axis MFI APC)
[2] = target: T1, human CD19 on Nalm6 B cells; assay: flow cytometry on Nalm6 B cells
[3] = target: T2, human CD28 on CHO cells (parental cell line CHO-k1 ATCC #CCL-61, modified to stably overexpress human CD28) (human, UniProt P10747 19-220); assay: flow cytometry on CHOk1-CD28 cells
T2 construct: also called hu CD28; CHO-hCD28

| Binder | EC50 (read off the curve) [1] | EC50 [2] | EC50 [3] |
| --- | --- | --- | --- |
| FAP(4B9)-CD28(SA) 1+2 format (Molecule E) (bispecific antibody, human IgG1, kappa, L234A L235A, bivalent anti-CD28, monovalent anti-FAP (VH and VL fused to the C-termini of the Fc chains); also called P1AD9011; FAP-CD28 1+2 SA) heavy 1: not shown heavy 2: QVQLVQSGAEVKKPGASVKVSCKASGYTFTSYYIHWVRQAPGQGLEWIGCIYPGNVNTNYNEKFKDRATLTVDTSISTAYMELSRLRSDDTAVYFCTRSHYGLDWNFDVWGQGTTVTVSSASTKGPSVFPLAPSSKSTSGGTAALGCLVKDYFPEPVTVSWNSGALTSGVHTFPAVLQSSGLYSLSSVVTVPSSSLGTQTYICNVNHKPSNTKVDKKVEPKSCDKTHTCPPCPAPEAAGGPSVFLFPPKPKDTLMISRTPEVTCVVVDVSHEDPEVKFNWYVDGVEVHNAKTKPREEQYNSTYRVVSVLTVLHQDWLNGKEYKCKVSNKALGAPIEKTISKAKGQPREPQVCTLPPSRDELTKNQVSLSCAVKGFYPSDIAVEWESNGQPENNYKTTPPVLDSDGSFFLVSKLTVDKSRWQQGNVFSCSVMHEALHNHYTQKSLSLSPGGGGGSGGGGSGGGGSGGGGSEIVLTQSPGTLSLSPGERATLSCRASQSVTSSYLAWYQQKPGQAPRLLINVGSRRATGIPDRFSGSGSGTDFTLTISRLEPEDFAVYYCQQGIMLPPTFGQGTKVEIK light: not shown | ~4 nM | – | – |
| CD19 (8B8-2B11)-CD28 (SA_v8) 1+1 (Molecule 18C) (bispecific antibody, human IgG1, kappa, L234A L235A, huIgG1 PG-LALA CrossFab; also called P1AF0175; CD19-CD28 v8) heavy 1: not shown light 1: not shown heavy 2: DIVMTQTPLSLSVTPGQPASISCKSSQSLETSTGTTYLNWYLQKPGQSPQLLIYRVSKRFSGVPDRFSGSGSGTDFTLKISRVEAEDVGVYYCLQLLEDPYTFGQGTKLEIKSSASTKGPSVFPLAPSSKSTSGGTAALGCLVKDYFPEPVTVSWNSGALTSGVHTFPAVLQSSGLYSLSSVVTVPSSSLGTQTYICNVNHKPSNTKVDKKVEPKSCDKTHTCPPCPAPEAAGGPSVFLFPPKPKDTLMISRTPEVTCVVVDVSHEDPEVKFNWYVDGVEVHNAKTKPREEQYNSTYRVVSVLTVLHQDWLNGKEYKCKVSNKALGAPIEKTISKAKGQPREPQVCTLPPSRDELTKNQVSLSCAVKGFYPSDIAVEWESNGQPENNYKTTPPVLDSDGSFFLVSKLTVDKSRWQQGNVFSCSVMHEALHNHYTQKSLSLSP light 2: QVQLVQSGAEVKKPGASVKVSCKASGYTFTDYIMHWVRQAPGQGLEWMGYINPYNDGSKYTEKFQGRVTMTSDTSISTAYMELSRLRSDDTAVYYCARGTYYYGPQLFDYWGQGTTVTVSSASVAAPSVFIFPPSDEQLKSGTASVVCLLNNFYPREAKVQWKVDNALQSGNSQESVTEQDSKDSTYSLSSTLTLSKADYEKHKVYACEVTHQGLSSPVTKSFNRGEC | – | 0.232 nM | 232 nM |
| CD19 (8B8-2B11)-CD28 (SA_v27) 1+1 (Molecule E of Example 18; 18E) (bispecific antibody, human IgG1, kappa, L234A L235A, huIgG1 PG-LALA CrossFab; also called P1AF0378; CD19-CD28 v27) heavy 1: not shown light 1: not shown heavy 2: DIVMTQTPLSLSVTPGQPASISCKSSQSLETSTGTTYLNWYLQKPGQSPQLLIYRVSKRFSGVPDRFSGSGSGTDFTLKISRVEAEDVGVYYCLQLLEDPYTFGQGTKLEIKSSASTKGPSVFPLAPSSKSTSGGTAALGCLVKDYFPEPVTVSWNSGALTSGVHTFPAVLQSSGLYSLSSVVTVPSSSLGTQTYICNVNHKPSNTKVDKKVEPKSCDKTHTCPPCPAPEAAGGPSVFLFPPKPKDTLMISRTPEVTCVVVDVSHEDPEVKFNWYVDGVEVHNAKTKPREEQYNSTYRVVSVLTVLHQDWLNGKEYKCKVSNKALGAPIEKTISKAKGQPREPQVCTLPPSRDELTKNQVSLSCAVKGFYPSDIAVEWESNGQPENNYKTTPPVLDSDGSFFLVSKLTVDKSRWQQGNVFSCSVMHEALHNHYTQKSLSLSP light 2: QVQLVQSGAEVKKPGASVKVSCKASGYTFTDYIMHWVRQAPGQGLEWMGYINPYNDGSKYTEKFQGRVTMTSDTSISTAYMELSRLRSDDTAVYYCARGTYYYGPQLFDYWGQGTTVTVSSASVAAPSVFIFPPSDEQLKSGTASVVCLLNNFYPREAKVQWKVDNALQSGNSQESVTEQDSKDSTYSLSSTLTLSKADYEKHKVYACEVTHQGLSSPVTKSFNRGEC | – | 0.368 nM | 10.8 nM |
| CD19 (8B8-2B11)-CD28 (SA_v15) 1+1 (Molecule 18B) (bispecific antibody, human IgG1, kappa, L234A L235A, huIgG1 PG-LALA CrossFab; also called P1AE9040; CD19-CD28 v15) heavy 1: not shown light 1: not shown heavy 2: DIVMTQTPLSLSVTPGQPASISCKSSQSLETSTGTTYLNWYLQKPGQSPQLLIYRVSKRFSGVPDRFSGSGSGTDFTLKISRVEAEDVGVYYCLQLLEDPYTFGQGTKLEIKSSASTKGPSVFPLAPSSKSTSGGTAALGCLVKDYFPEPVTVSWNSGALTSGVHTFPAVLQSSGLYSLSSVVTVPSSSLGTQTYICNVNHKPSNTKVDKKVEPKSCDKTHTCPPCPAPEAAGGPSVFLFPPKPKDTLMISRTPEVTCVVVDVSHEDPEVKFNWYVDGVEVHNAKTKPREEQYNSTYRVVSVLTVLHQDWLNGKEYKCKVSNKALGAPIEKTISKAKGQPREPQVCTLPPSRDELTKNQVSLSCAVKGFYPSDIAVEWESNGQPENNYKTTPPVLDSDGSFFLVSKLTVDKSRWQQGNVFSCSVMHEALHNHYTQKSLSLSP light 2: QVQLVQSGAEVKKPGASVKVSCKASGYTFTDYIMHWVRQAPGQGLEWMGYINPYNDGSKYTEKFQGRVTMTSDTSISTAYMELSRLRSDDTAVYYCARGTYYYGPQLFDYWGQGTTVTVSSASVAAPSVFIFPPSDEQLKSGTASVVCLLNNFYPREAKVQWKVDNALQSGNSQESVTEQDSKDSTYSLSSTLTLSKADYEKHKVYACEVTHQGLSSPVTKSFNRGEC | – | 0.416 nM | 15.6 nM |

Next, values leading:

| EC50 (read off the curve) [1] | EC50 [2] | EC50 [3] | Binder |
| --- | --- | --- | --- |
| – | 0.274 nM | 6.65 nM | CD19 (8B8-2B11)-CD28 (SA_v29) 1+1 (Molecule 18A) (bispecific antibody, human IgG1, kappa, L234A L235A, huIgG1 PG-LALA CrossFab; also called P1AE8002; CD19-CD28 v29) heavy 1: not shown light 1: not shown heavy 2: DIVMTQTPLSLSVTPGQPASISCKSSQSLETSTGTTYLNWYLQKPGQSPQLLIYRVSKRFSGVPDRFSGSGSGTDFTLKISRVEAEDVGVYYCLQLLEDPYTFGQGTKLEIKSSASTKGPSVFPLAPSSKSTSGGTAALGCLVKDYFPEPVTVSWNSGALTSGVHTFPAVLQSSGLYSLSSVVTVPSSSLGTQTYICNVNHKPSNTKVDKKVEPKSCDKTHTCPPCPAPEAAGGPSVFLFPPKPKDTLMISRTPEVTCVVVDVSHEDPEVKFNWYVDGVEVHNAKTKPREEQYNSTYRVVSVLTVLHQDWLNGKEYKCKVSNKALGAPIEKTISKAKGQPREPQVCTLPPSRDELTKNQVSLSCAVKGFYPSDIAVEWESNGQPENNYKTTPPVLDSDGSFFLVSKLTVDKSRWQQGNVFSCSVMHEALHNHYTQKSLSLSP light 2: QVQLVQSGAEVKKPGASVKVSCKASGYTFTDYIMHWVRQAPGQGLEWMGYINPYNDGSKYTEKFQGRVTMTSDTSISTAYMELSRLRSDDTAVYYCARGTYYYGPQLFDYWGQGTTVTVSSASVAAPSVFIFPPSDEQLKSGTASVVCLLNNFYPREAKVQWKVDNALQSGNSQESVTEQDSKDSTYSLSSTLTLSKADYEKHKVYACEVTHQGLSSPVTKSFNRGEC |
| – | 0.363 nM | 150 nM | CD19 (8B8-2B11)-CD28 (SA_v11) 1+1 (Molecule D of Example 18; 18D) (bispecific antibody, human IgG1, kappa, L234A L235A, huIgG1 PG-LALA CrossFab; also called P1AF0377; CD19-CD28 v11) heavy 1: not shown light 1: not shown heavy 2: DIVMTQTPLSLSVTPGQPASISCKSSQSLETSTGTTYLNWYLQKPGQSPQLLIYRVSKRFSGVPDRFSGSGSGTDFTLKISRVEAEDVGVYYCLQLLEDPYTFGQGTKLEIKSSASTKGPSVFPLAPSSKSTSGGTAALGCLVKDYFPEPVTVSWNSGALTSGVHTFPAVLQSSGLYSLSSVVTVPSSSLGTQTYICNVNHKPSNTKVDKKVEPKSCDKTHTCPPCPAPEAAGGPSVFLFPPKPKDTLMISRTPEVTCVVVDVSHEDPEVKFNWYVDGVEVHNAKTKPREEQYNSTYRVVSVLTVLHQDWLNGKEYKCKVSNKALGAPIEKTISKAKGQPREPQVCTLPPSRDELTKNQVSLSCAVKGFYPSDIAVEWESNGQPENNYKTTPPVLDSDGSFFLVSKLTVDKSRWQQGNVFSCSVMHEALHNHYTQKSLSLSP light 2: QVQLVQSGAEVKKPGASVKVSCKASGYTFTDYIMHWVRQAPGQGLEWMGYINPYNDGSKYTEKFQGRVTMTSDTSISTAYMELSRLRSDDTAVYYCARGTYYYGPQLFDYWGQGTTVTVSSASVAAPSVFIFPPSDEQLKSGTASVVCLLNNFYPREAKVQWKVDNALQSGNSQESVTEQDSKDSTYSLSSTLTLSKADYEKHKVYACEVTHQGLSSPVTKSFNRGEC |
